Patent US20210238276A1 (INTEGRAL MOLECULAR, published 2021)

T1: hsGLUT4 G65A (human, UniProt P14672 1-509)
T1 sequence: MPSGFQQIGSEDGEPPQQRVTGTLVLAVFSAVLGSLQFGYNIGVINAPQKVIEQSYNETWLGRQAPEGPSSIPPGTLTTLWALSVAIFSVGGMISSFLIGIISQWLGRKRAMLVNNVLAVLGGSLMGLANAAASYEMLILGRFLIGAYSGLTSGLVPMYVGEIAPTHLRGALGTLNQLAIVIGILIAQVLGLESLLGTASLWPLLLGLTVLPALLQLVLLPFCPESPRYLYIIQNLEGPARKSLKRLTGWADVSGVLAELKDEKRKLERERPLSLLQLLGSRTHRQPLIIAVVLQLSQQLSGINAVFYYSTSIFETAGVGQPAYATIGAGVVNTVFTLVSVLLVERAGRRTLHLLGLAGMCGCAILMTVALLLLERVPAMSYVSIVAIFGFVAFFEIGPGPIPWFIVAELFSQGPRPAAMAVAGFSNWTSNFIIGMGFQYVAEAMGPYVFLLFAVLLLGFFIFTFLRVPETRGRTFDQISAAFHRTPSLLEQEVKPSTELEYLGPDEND

T2: hsGLUT4 P224A (human, UniProt P14672 1-509)
T2 sequence: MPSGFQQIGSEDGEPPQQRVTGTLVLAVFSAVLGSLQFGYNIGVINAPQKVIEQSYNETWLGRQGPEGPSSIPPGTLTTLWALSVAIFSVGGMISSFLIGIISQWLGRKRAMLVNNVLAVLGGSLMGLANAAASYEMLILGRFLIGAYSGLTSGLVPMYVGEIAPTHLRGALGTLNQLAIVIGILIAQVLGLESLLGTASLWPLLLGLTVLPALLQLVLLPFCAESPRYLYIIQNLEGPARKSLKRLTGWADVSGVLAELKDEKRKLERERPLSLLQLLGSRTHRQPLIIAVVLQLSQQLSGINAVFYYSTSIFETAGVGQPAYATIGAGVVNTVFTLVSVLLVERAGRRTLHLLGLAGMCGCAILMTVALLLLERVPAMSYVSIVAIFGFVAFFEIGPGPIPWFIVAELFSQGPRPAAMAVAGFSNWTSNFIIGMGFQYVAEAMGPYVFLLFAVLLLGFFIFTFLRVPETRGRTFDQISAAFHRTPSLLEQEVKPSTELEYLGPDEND

T3: hsGLUT4 Q295A (human, UniProt P14672 1-509)
T3 sequence: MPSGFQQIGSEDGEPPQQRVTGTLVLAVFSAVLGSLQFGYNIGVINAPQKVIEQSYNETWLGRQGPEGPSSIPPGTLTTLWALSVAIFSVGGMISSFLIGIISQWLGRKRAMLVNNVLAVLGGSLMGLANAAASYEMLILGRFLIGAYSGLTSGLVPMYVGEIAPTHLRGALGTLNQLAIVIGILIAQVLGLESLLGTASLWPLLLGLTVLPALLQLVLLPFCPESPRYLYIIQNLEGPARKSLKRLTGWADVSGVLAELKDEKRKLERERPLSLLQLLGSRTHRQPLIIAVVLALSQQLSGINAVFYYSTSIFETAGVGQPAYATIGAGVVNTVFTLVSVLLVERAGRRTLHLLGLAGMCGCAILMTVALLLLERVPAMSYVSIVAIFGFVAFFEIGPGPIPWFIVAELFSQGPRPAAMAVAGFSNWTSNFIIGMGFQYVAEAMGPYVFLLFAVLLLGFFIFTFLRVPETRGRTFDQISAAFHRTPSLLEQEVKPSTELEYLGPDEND

T4: hsGLUT4 G356A (human, UniProt P14672 1-509)
T4 sequence: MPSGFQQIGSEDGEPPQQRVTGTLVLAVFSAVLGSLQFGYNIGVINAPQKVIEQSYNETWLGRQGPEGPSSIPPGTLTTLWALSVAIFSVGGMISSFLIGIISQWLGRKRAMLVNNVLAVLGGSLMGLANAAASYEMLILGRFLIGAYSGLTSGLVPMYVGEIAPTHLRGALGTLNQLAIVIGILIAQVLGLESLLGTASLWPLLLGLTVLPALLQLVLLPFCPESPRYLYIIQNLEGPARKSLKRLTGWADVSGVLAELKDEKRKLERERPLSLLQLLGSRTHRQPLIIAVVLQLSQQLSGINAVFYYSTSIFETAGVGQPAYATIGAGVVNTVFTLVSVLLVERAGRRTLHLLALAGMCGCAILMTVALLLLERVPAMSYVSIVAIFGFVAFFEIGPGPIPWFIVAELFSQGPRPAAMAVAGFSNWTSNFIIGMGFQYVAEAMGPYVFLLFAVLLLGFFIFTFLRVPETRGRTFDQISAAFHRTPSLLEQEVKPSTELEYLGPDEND


Columns and labels:
Experiment in all cases: flow cytometry, alanine-scan library in HEK-293T
hsGLUT4 G65A = molecular target: T1, hsGLUT4 G65A
Procedure, shortened: (§1)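 HEK-293T cells expressing individual GLUT4 alanine mutants were stained 48 h post-transfection with anti-GLUT4 scFv MAbs (2 μg/ml), then biotinylated secondary and streptavidin-PerCP, and read by high-throughput flow cytometry. Where used, cytochalasin B (10 uM final) was given for 30 min before and during primary antibody staining.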

hsGLUT4 P224A = molecular target: T2, hsGLUT4 P224A
Procedure, shortened: as §1

hsGLUT4 Q295A = molecular target: T3, hsGLUT4 Q295A
Procedure, shortened: as §1

hsGLUT4 G356A = molecular target: T4, hsGLUT4 G356A
Procedure, shortened: as §1

Row | Molecule | % of binding to wild type GLUT4 (hsGLUT4 G65A) [%] | % of binding to wild type GLUT4 (hsGLUT4 P224A) [%] | % of binding to wild type GLUT4 (hsGLUT4 Q295A) [%] | % of binding to wild type GLUT4 (hsGLUT4 G356A) [%]
1 | 1F8 (antibody) | 95 | 103 | 81 | 90
2 | AB111 (Fc fusion, Bivalent scFv-Fc; also called MAb AB111; not shown: Fc fragment of human IgG1, cloned in frame with the scFv) scFv: ALTQPSSVSANPGETVKITCSGSGSWYGWFQQKSPGSAPVTVIYSNDKRPSDIPSRFSGSKSGSTSTLTITGVQVEDEAVYYCGNWDIFGAGTTLTVLGQSSRSSGGGGSSGGGGSAVTLDESGGGLQTPGGALSLVCKASGFTFSSHGMGWVRQAPGKGLEWVASISTGRYTFYAPAVKGRATISRDNGQSTVRLQLNNLRAEDTATYYCTKCAGLNGCGGGEIDAWGHGTEVIVSS | 15 | 108 | 138 | 137
3 | AB108 (Fc fusion, Bivalent scFv-Fc; also called MAb AB108; not shown: Fc fragment of human IgG1, cloned in frame with the scFv) scFv: ALTQPSSVSANLGGTVKITCSGSSGSYGWYQQKAPGSAPVTLIYRNDKRPSDIPSRFSGSESGSTGTLTITGVQAEDEAVYFCGGYDSSAGYAAFGAGTTLTVLGQSSRSSGGGGSSGGGGSAVTLDESGGGLQTPGGALSLVCKASGFTFSSHGMGWVRQAPGKGLEWVGSISTGRYTFYAPAVKGRATISRDNGQSTLRLQLNNLRAEDTGTYYCTKCAGLNGCGGGEIDAWGHGTEVIVSS | 1 | 56 | 113 | 19
4 | AB101 (scFv, Chicken-derived clone used as a control; the four lead clones were tested as scFv-human IgG1 Fc; also called MAb AB101) scFv: ALTQPSSVSANPGETVKITCSGSSNSYGWYQQKSPGSAPVTVIYYNDKRPSDIPSRFSGSKSDSTHTLTITGVRAEDEAVYFCGSYDSTYVGIFGAGTTLTVLGQSSRSSGGGGSSGGGGSAVTLDESGGGLQTPGGTLSLVCKASGFTFSSNAMGWVRQAPGKGLEWVAGISSDGRYTKYGSAVKGRATISRDNGQSTVRLQLNNLRAEDTGTYFCAKAFGNNYRRIYAGQIDAWGHGTEVIVSS | 87 | 90 | 102 | 46
